Measured values published in paper PMC9482650, “Quantitative fragmentomics allow affinity mapping of interactomes” (Nature Communications, 2022).
Values belong to the binder of their own block, whether it stands above or below them.

Columns and labels:
Experiment in all cases: holdup assay
Parameters in all cases: key: below the threshold = too weak to quantify, mostly under pKd 3.1 to 4
SCRIB_3, Q14160 = molecular target: SCRIB_3, Q14160
MPP2, Q14168 = molecular target: T1, MPP2, Q14168
T1 sequence (Q14168 180-250, limits assumed, looked up): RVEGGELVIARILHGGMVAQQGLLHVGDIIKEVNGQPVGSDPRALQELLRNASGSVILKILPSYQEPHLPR

SIPA1L2, Q9P2F8 = molecular target: T2, SIPA1L2, Q9P2F8
T2 sequence (Q9P2F8 945-1036, limits assumed, looked up): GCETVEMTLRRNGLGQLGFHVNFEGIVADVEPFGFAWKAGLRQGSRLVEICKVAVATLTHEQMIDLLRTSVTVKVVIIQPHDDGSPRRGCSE

NHERF3_4, Q5T2W1 = molecular target: T3, NHERF3_4, Q5T2W1
T3 sequence (Q5T2W1 373-468, limits assumed, looked up): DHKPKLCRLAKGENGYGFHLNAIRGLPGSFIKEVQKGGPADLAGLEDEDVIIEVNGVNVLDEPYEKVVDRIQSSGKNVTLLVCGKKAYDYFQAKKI

MAGI2_5, Q86UL8 = molecular target: MAGI2_5, Q86UL8
Chain of MAGI2_5, Q86UL8 (Q86UL8 915-1017): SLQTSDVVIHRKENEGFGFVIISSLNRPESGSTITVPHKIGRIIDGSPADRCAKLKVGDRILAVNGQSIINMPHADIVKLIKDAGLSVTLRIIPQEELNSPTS

MAST2, Q6P0Q8 = molecular target: MAST2, Q6P0Q8
Chain of MAST2, Q6P0Q8 (Q6P0Q8 1099-1202): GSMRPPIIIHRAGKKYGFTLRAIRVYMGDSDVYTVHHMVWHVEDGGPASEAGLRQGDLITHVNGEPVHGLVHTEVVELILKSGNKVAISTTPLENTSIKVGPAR

TJP1_2, Q07157 = molecular target: TJP1_2, Q07157
Chain of TJP1_2, Q07157 (Q07157 181-274): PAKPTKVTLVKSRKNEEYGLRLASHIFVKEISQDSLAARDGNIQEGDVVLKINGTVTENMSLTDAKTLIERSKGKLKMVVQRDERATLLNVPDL

MAGI2_4, Q86UL8 = molecular target: MAGI2_4, Q86UL8
Chain of MAGI2_4, Q86UL8 (Q86UL8 772-865): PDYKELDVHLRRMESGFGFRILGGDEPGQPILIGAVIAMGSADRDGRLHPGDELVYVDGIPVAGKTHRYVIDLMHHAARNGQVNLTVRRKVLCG

APBA2_2, Q99767 = molecular target: T4, APBA2_2, Q99767
T4 sequence (Q99767 654-744, limits assumed, looked up): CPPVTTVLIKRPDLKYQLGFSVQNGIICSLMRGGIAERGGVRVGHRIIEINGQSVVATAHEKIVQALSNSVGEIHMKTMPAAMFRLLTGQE

GRIP2_5, Q9C0E4 = molecular target: GRIP2_5, Q9C0E4
Chain of GRIP2_5, Q9C0E4 (Q9C0E4 544-642): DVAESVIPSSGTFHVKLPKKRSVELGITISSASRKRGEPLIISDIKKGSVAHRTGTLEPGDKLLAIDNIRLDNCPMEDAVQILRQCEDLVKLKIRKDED

TIAM2, Q8IVF5 = molecular target: T5, TIAM2, Q8IVF5
T5 sequence (Q8IVF5 885-986, limits assumed, looked up): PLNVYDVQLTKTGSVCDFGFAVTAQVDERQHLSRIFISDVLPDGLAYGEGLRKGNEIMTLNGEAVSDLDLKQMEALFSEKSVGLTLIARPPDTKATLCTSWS

RADIL, Q96JH8 = molecular target: T6, RADIL, Q96JH8
T6 sequence (Q96JH8 971-1071, limits assumed, looked up): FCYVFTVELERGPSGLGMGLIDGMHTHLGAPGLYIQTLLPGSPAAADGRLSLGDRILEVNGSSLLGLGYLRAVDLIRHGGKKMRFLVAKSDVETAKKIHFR

LRRC7, Q96NW7 = molecular target: T7, LRRC7, Q96NW7
T7 sequence (Q96NW7 1440-1537, limits assumed, looked up): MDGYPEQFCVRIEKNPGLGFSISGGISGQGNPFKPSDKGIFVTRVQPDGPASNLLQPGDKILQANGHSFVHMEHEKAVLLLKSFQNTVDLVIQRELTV

PDLIM1, O00151 = molecular target: PDLIM1, O00151
Chain of PDLIM1, O00151 (O00151 1-87): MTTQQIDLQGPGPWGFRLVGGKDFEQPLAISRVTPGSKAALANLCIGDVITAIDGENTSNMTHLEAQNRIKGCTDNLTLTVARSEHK

FRMPD3, Q5JV73 = molecular target: FRMPD3, Q5JV73
Chain of FRMPD3, Q5JV73 (Q5JV73 12-100): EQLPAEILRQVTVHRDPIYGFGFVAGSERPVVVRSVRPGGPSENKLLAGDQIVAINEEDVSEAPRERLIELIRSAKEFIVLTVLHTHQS

FRMPD1, Q5SYB0 = molecular target: T8, FRMPD1, Q5SYB0
T8 sequence (Q5SYB0 52-145, limits assumed, looked up): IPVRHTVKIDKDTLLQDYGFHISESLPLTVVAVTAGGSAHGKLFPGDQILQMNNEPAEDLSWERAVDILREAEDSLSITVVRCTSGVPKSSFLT

DLG4_1, P78352 = molecular target: DLG4_1, P78352
Chain of DLG4_1, P78352 (P78352 62-152): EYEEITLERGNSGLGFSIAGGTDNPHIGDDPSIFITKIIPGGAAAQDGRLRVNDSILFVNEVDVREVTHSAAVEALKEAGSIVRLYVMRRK

GRIP1_5, Q9Y3R0 = molecular target: T9, GRIP1_5, Q9Y3R0
T9 sequence (Q9Y3R0 568-668, limits assumed, looked up): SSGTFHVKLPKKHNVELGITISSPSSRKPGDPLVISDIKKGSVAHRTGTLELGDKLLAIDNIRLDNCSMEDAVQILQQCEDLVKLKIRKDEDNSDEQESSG

LNX1_2, Q8TBB1 = molecular target: LNX1_2, Q8TBB1
Chain of LNX1_2, Q8TBB1 (Q8TBB1 371-470): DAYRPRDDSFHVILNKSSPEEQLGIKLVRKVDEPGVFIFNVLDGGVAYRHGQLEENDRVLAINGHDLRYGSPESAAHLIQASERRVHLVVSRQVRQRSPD

DLG3_2, Q92796 = molecular target: T10, DLG3_2, Q92796
T10 sequence (Q92796 221-321, limits assumed, looked up): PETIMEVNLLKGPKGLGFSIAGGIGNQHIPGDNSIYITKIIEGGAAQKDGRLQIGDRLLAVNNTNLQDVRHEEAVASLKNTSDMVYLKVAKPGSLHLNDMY

APBA2_1, Q99767 = molecular target: T11, APBA2_1, Q99767
T11 sequence (Q99767 563-664, limits assumed, looked up): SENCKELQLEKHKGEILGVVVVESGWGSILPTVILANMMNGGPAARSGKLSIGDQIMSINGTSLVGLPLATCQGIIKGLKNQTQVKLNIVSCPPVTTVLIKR

Inadl_6, Q8NI35 = molecular target: Inadl_6, Q8NI35
Chain of Inadl_6, Q8NI35 (Q8NI35 1058-1167): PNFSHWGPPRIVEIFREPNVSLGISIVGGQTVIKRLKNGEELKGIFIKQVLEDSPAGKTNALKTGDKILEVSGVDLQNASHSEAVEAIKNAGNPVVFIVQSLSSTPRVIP

NOS1, P29475 = molecular target: NOS1, P29475
Chain of NOS1, P29475 (P29475 9-101): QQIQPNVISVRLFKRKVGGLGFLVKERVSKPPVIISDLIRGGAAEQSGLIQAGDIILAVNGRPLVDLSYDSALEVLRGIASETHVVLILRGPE

APBA1_2, Q02410 = molecular target: T12, APBA1_2, Q02410
T12 sequence (Q02410 742-832, limits assumed, looked up): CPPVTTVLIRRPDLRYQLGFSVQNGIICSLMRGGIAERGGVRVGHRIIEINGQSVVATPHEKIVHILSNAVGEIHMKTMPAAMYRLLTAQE

LNX2_2, Q8N448 = molecular target: T13, LNX2_2, Q8N448
T13 sequence (Q8N448 334-432, limits assumed, looked up): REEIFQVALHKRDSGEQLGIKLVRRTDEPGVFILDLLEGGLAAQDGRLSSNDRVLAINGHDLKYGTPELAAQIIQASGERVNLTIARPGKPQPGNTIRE

[1] = plain residues with an end cap or a label only (N-terminal biotin on a linker: ado-ado)
[2] = plain residues with an end cap or a label only (N-terminal biotin on a linker: ahx)

Chain of SCRIB_3, Q14160 (Q14160 999-1103): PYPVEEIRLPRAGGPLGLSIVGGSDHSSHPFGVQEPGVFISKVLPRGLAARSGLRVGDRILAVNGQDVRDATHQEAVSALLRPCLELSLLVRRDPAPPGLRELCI

pKd (SCRIB_3, Q14160; [1]): below the threshold
pKd (MPP2, Q14168; [1]): below the threshold
pKd (SIPA1L2, Q9P2F8; [1]): below the threshold
pKd (NHERF3_4, Q5T2W1; [1]): below the threshold
pKd (MAGI2_5, Q86UL8; [1]): below the threshold
pKd (MAST2, Q6P0Q8; [1]): 5.2
pKd (TJP1_2, Q07157; [1]): below the threshold
pKd (MAGI2_4, Q86UL8; [1]): below the threshold
pKd (APBA2_2, Q99767; [1]): below the threshold
pKd (GRIP2_5, Q9C0E4; [1]): below the threshold
pKd (TIAM2, Q8IVF5; [1]): 3.86
pKd (RADIL, Q96JH8; [1]): below the threshold
pKd (LRRC7, Q96NW7; [1]): below the threshold
pKd (PDLIM1, O00151; [1]): below the threshold
pKd (FRMPD3, Q5JV73; [1]): below the threshold
pKd (FRMPD1, Q5SYB0; [1]): below the threshold
pKd (DLG4_1, P78352; [1]): below the threshold
pKd (GRIP1_5, Q9Y3R0; [1]): below the threshold
pKd (LNX1_2, Q8TBB1; [1]): below the threshold
pKd (DLG3_2, Q92796; [1]): 4
pKd (APBA2_1, Q99767; [1]): below the threshold
pKd (Inadl_6, Q8NI35; [1]): below the threshold
pKd (NOS1, P29475; [1]): below the threshold
pKd (APBA1_2, Q02410; [1]): 3.54
pKd (LNX2_2, Q8N448; [1]): below the threshold
B1: KLHDC7A, Q5VTJ3 (peptide)
chain: PTPDLPQTRV

pKd (SCRIB_3, Q14160; [2]): 4.59
pKd (MPP2, Q14168; [2]): below the threshold
pKd (SIPA1L2, Q9P2F8; [2]): below the threshold
pKd (NHERF3_4, Q5T2W1; [2]): 4.54
pKd (MAGI2_5, Q86UL8; [2]): 3.59
pKd (MAST2, Q6P0Q8; [2]): 5.36
pKd (TJP1_2, Q07157; [2]): below the threshold
pKd (MAGI2_4, Q86UL8; [2]): 3.48
pKd (APBA2_2, Q99767; [2]): below the threshold
pKd (GRIP2_5, Q9C0E4; [2]): below the threshold
pKd (TIAM2, Q8IVF5; [2]): below the threshold
pKd (RADIL, Q96JH8; [2]): below the threshold
pKd (LRRC7, Q96NW7; [2]): below the threshold
pKd (PDLIM1, O00151; [2]): below the threshold
pKd (FRMPD3, Q5JV73; [2]): below the threshold
pKd (FRMPD1, Q5SYB0; [2]): below the threshold
pKd (DLG4_1, P78352; [2]): 3.48
pKd (GRIP1_5, Q9Y3R0; [2]): below the threshold
pKd (LNX1_2, Q8TBB1; [2]): below the threshold
pKd (DLG3_2, Q92796; [2]): below the threshold
pKd (APBA2_1, Q99767; [2]): below the threshold
pKd (Inadl_6, Q8NI35; [2]): below the threshold
pKd (NOS1, P29475; [2]): 3.72
pKd (APBA1_2, Q02410; [2]): 3.5
pKd (LNX2_2, Q8N448; [2]): below the threshold
B2: FRMPD1, Q5SYB0 (peptide)
chain: TQKFRASTAL

pKd (SCRIB_3, Q14160; [1]): 3.88
pKd (MPP2, Q14168; [1]): below the threshold
pKd (SIPA1L2, Q9P2F8; [1]): below the threshold
pKd (NHERF3_4, Q5T2W1; [1]): 3.66
pKd (MAGI2_5, Q86UL8; [1]): below the threshold
pKd (MAST2, Q6P0Q8; [1]): 4.83
pKd (TJP1_2, Q07157; [1]): below the threshold
pKd (MAGI2_4, Q86UL8; [1]): 3.69
pKd (APBA2_2, Q99767; [1]): below the threshold
pKd (GRIP2_5, Q9C0E4; [1]): 3.54
pKd (TIAM2, Q8IVF5; [1]): below the threshold
pKd (RADIL, Q96JH8; [1]): below the threshold
pKd (LRRC7, Q96NW7; [1]): below the threshold
pKd (PDLIM1, O00151; [1]): below the threshold
pKd (FRMPD3, Q5JV73; [1]): below the threshold
pKd (FRMPD1, Q5SYB0; [1]): below the threshold
pKd (DLG4_1, P78352; [1]): 4.4
pKd (GRIP1_5, Q9Y3R0; [1]): 3.48
pKd (LNX1_2, Q8TBB1; [1]): below the threshold
pKd (DLG3_2, Q92796; [1]): 4.59
pKd (APBA2_1, Q99767; [1]): below the threshold
pKd (Inadl_6, Q8NI35; [1]): below the threshold
pKd (NOS1, P29475; [1]): 4.04
pKd (APBA1_2, Q02410; [1]): 3.91
pKd (LNX2_2, Q8N448; [1]): below the threshold
B3: CACNG8, Q8WXS5 (peptide)
chain: NTLNRKTTPV
